# Experimental data reported in PMC8850444, “The lipid components of high-density lipoproteins (HDL) are essential for the binding and transportation of antimicrobial peptides in human serum” (Scientific Reports, 2022).
# B1: apolipoprotein A-II (Apo-AII) of human serum (natural protein)
# chain: not shown
# notes: Dimeric under non-reducing conditions; In serum it stands in HDL particles together with lipids; also called 17 kDa protein; source: endogenous, crude human serum
# Biological target: the molecule itself
# Test: non-reducing SDS-PAGE; serum proteins pulled down by immobilised LL37, 15% non-reducing SDS-PAGE, Coomassie; monomer to dimer
protein,measurement,value
B1,stoichiometry N,2
